Data on 18 sequences can be found in the DeepSol protein solubility set.

The data set is described as follows: soluble on expression in E. coli; label from the status in PepcDB or PDB records.
Turning to “MSLEIADLKVHFDIKEGKQWFWQPPKTLKAVDGVTLRLYEGETLGVVGESGCGKSTFARAIIGLVKATDGKVAWLGKDLLGMKADEWREVRSDIQMIFQDPLASLNPRMTIGEIIAEPLRTYHPKLSRQDVRDRVKAMMLKVGLLPNLINRYPHEFSGGQCQRIGIARALILEPKLIICDEPVSALDVSIQAQVVNLLQQLQREMGLSLIFIAHDLAVVKHISDRVLVMYLGHAVELGTYDEVYHNPLHPYTKALMLAVPIPDPDLERNKKIQLLEGELPSPINPPSEGHHHHHH”, the “soluble on expression in E. coli” value was “soluble”.

Turning to “MSLEIHFEKVTSDNRKAVENLQVFAEQQAFIESMAENLKESDQFPEWESAGIYDGNQLIGYAMYGRWQDGRVWLDRFLIDQRFQGQGYGKAACRLLMLKLIEKYQTNKLYLSVYDTNSSAIRLYQQLGFVFNGELDTNGERVMEWTHQNKEGGSHHHHHH”, the “soluble on expression in E. coli” value is listed as “soluble”.

Consider “MSLEIIPVIDLMNGLAVSGKSGNRKEYVPIKSVLCDSSDPHDVIKKYNENGAKKVYIADLNSIMGTGNNFEIVKSLDIFKIVDFGVTDKKDLENVKKCVNMTILGTETLNDISILKEGNIILSLDFKDGKLLNYDLDDILSKVDKKTPLIILDISSVGTQKGINVELIKDILKKTDNPIYIGGGIKSEDDLKISKELGISGVLIGTTIHNGKLDLKKIIQKYGEGHHHHHH”, for which the “soluble on expression in E. coli” value is given as “soluble”.

In the case of “MSLEITNPILTGFNPDPSLCRQGEDYYIATSTFEWFPGVRIYHSRDLKNWSLVSTPLDRVSMLDMKGNPDSGGIWAPCLSYADGKFWLLYTDVKIVDSPWKNGRNFLVTAPSIEGPWSEPIPMGNGGFDPSLFHDDDGRKYYIYRPWGPRHHSNPHNTIVLQAFDPQTGTLSPERKTLFTGTPLCYTEGAHLYRHAGWYYLMAAEGGTSYEHAVVVLRSKNIDGPYELHPDVTMMTSWHLPENPLQKSGHGSLLQTHTGEWYMAYLTSRPLRLPGVPLLASGGRGYCPLGRETGIARIEWRDGWPYVEGGKHAQLTVKGPQVAEQPAAVPGNWRDDFDASSLDPELQTLRIPFDDTLGSLTARPGFLRLYGNDSLNSTFTQSTVARRWQHFAFRAETRMEFSPVHFQQSAGLTCYYNSKNWSYCFVDYEEGQGRTIKVIQLDHNVPSWPLHEQPIPVPEHAESVWLRVDVDTLVYRYSYSFDGETWHTVPVTYEAWKLSDDYIGGRGFFTGAFVGLHCEDISGDGCYADFDYFTYEPVEGHHHHHH”, the “soluble on expression in E. coli” value was “not soluble”.

On to “MSLEKKNASTDEKGYYSNKISLEDLNKNIEDKKEQTIYFYQTSCVHCQKVSPIVVPLAKDLNVDMKVIDIENLNEPWDKYNIQGTPTIIHFKDGKEVSRISGEQSKDKFKEWFEQTKKEGHHHHHH”, for which the “soluble on expression in E. coli” value is “not soluble”.

Turning to “MSLELTTQDIQLQQHFANKQAAIQGLAHALTAKGLVAEGYAQGMLNREAQHSTYLGNGIAIPHGTTDTRELVKQTGVTAMHFPQGLDWGDGNLVYVAIGIAAKSDEHLGILKQLTRVLSADGVEQALQQAKTAQQIIAIIKGEAQLTADFDASLIQLQFPASDMVQMSAVAGGLLKNTGCAENEFVADLVTKAPTHLGRGLWLVASDRAVKRTGMSIVTTANHCEYEQQAVKALIAFSVCNDVHQPLLNTITQCVFEQKQDQLLQADVQQLLNLFSGNAEQTIAQRTIAVGTITEETIAAETVAEPDSARAHTATFRIKNSHGLHARPGAMLVAEAKKFESNIRVSNLDGDGQVVNAKSLMKVIALGVKHNHQLQFTAEGPDAEAALQALGVAINAGLGEGHHHHHH”, the “soluble on expression in E. coli” value is “soluble”.

In the case of “MSLELVIGTKRWSSWSLRPWLALKRAGVDFTELEVALRRGEATGDEIGCISPSRLAPALRDGDLVIWDSLAICEYLAERYPDAKLWPDDPVLRALGRSACAEMHSGFQALRGECPMALDEPPRKLDLSEATQKNVRRIVALWTGLLARSHGPFLLGDWSIADAFYTPVATRFRTYDVRLADYGDAGAAQGYSDRLLQTPEFLEWERAAQAGEGHHHHHH”, the “soluble on expression in E. coli” value is “soluble”.

In the case of “MSLENAGSRPFLADFNGFSYLELKGLHTFERDLGEKMALEMVFLARGPSGLLLYNGQKTDGKGDFVSLALHNRHLEFRYDLGKGAAIIRSKEPIALGTWVRVFLERNGRKGALQVGDGPRVLGESPVPHTMLNLKEPLYVGGAPDFSKLARGAAVASGFDGAIQLVSLRGHQLLTQEHVLRAVDVAPFAGEGHHHHHH”, the “soluble on expression in E. coli” value was “soluble”.

Consider “MSLENKMPKDFFWGNSTSSMQTEGGWNEGGKGPSVYDVNTAGRSAKDWQVTNDNYHHYSQDLDLMKEMNMNMYRFQISWSRIVPDGDGEFNEEGIAFYNRLIDDLLARGIEPMICLYHFDMPLNLAEKYNGFLSRKVKEAFVRFGQEMMKRFADKVKYWIVFNEHNLYFADGFEHYSGVLKKELTLSDMYTVFHHTMLAHCELTQFLHENFEAKIGGMLATTEIYPATFSPKDNLYLRKFDEFYNRNLCDVYAFGHYSHEVMTYVKNQNIQMDFQKGDEEILKNGISDFISFSYYRSILLDASQLTENDAPNSYLTKGMKLNPLLEHNQWDWSIDPEGFRRILSRLYNEFGLPVFPIENGIGQSEIWDGKTKIADDLRIFYHQKHLEAMKKAIFTDGVEVMGYLGWGLIDIPASSGAIDKRYGAVYVDPKSHKRIPKKSFHWFKNVFASNGDHLDEGHHHHHH”, for which the “soluble on expression in E. coli” value is recorded as “not soluble”.

In the case of “MSLEPLAETYQALVLAVRDYVTKNGFHGAVLGLSGGIDSALTLAIAADAIGADKVQAVMMPFRYTAQMSVEDAKEQAERMGVEFNIISIEPMFEGFMAQLAPLFEGTARDTTEENLQARCRGVLLMALSNKRRCIVLTTGNKSEMAVGYATLYGDMAGGFDVLKDVPKTLVFKLCEYRNSVDYVIPQRVIDRPPSAELAPDQVDQDSLPPYDILDAILKRYVEEDASVADMVAEGFEEAVVRKVIRLVDLNEYKRRQAAVGPRITARNEGHHHHHH”, the “soluble on expression in E. coli” value is on record as “not soluble”.

For the sequence “MSLEQKQMEEKIMNLLTSAPDKTFALEDLEIEIALNNADNFKLMVKALVKLEDSGTIVRSRKNRYALPEKMDLVKGTFRAHERGFGFVLPEEKEMDDIFIPPNEVKDAMNGDLVFATITKRKGDNLAEGTIKKIVERKTTQIVGTYMEDLAGTPIVMPDDKRLFGEVEIDLEDGLKPVDGHKVIVELTEYATGHARARGVVKSIIGHRNDPGVDILSIIHKHGISIGFPEEVMEQVSKAPDLVDDSDIGNRRDLRDQMIITIDGADAKDLDDAVTVKQLPNGNWKLGVHIADVTHYVTEGSPLDIEAQERGTSVYLVDRVIPMLPHKLSNGICSLNPQVDRFTMSCEMEIDQEGHVVNHEIFESIIKTTERMTYTDVNDILVEKDEALREKYAPIVPMLEAMQNLAEILRRKREKRGAIDFDFKEARVVVDEDGHPEAVVMRERSAGEHLIEEFMLAANETVAEHFHWMDVPFIYRIHEDPKEDKLARFFEFITNFGLIVKGTANDIHPAALQQVLEEVKGKPEEMVVSTVMLRSMQQAKYDTVSAGHFGLSTDFYTHFTSPIRRYPDLIVHRLIREYLINGDVRPETLEKRAEELPEIAEHSSKMERRAVEAERETDELKKTEFMVDKVGERFIGIISSVTNFGLFIELPTTIEGLVHVSAMKGDYFKFHQNQLAMIGERTGQIYRIGDEVEVEVTKVDVDAREIDFALRSEGKPGPVSDKQKRQREKPIDKTRNFKSSSKNNRNKRRTGKSEDVKPKTERKDDEWYTKPKKKKKKKPFYQGVAKESPKKKKRREGHHHHHH”, the “soluble on expression in E. coli” value was “soluble”.

In the case of “MSLERIDIASVKGGVGKSFIAYFLSKTLAASHKILLIDKDLTSTLSRVYNIKGNLLSYLTVGQSSLAYFKEVDSGLTVVNVGCSRKIKNVEPKKIADIYSGFSDHDLMIVDNPSIPSDVCLDTELQAYYTYLNEKRLDYNLILILPPNQLLLDESLAFMQLFKDYIKNELSISLGNDLVNFDVISSVINMYNPRERIDISKIKDLTSKIVKIPFKKEAIYTPFNQLNTPMEISELAKYVLEYLESREGHHHHHH”, the “soluble on expression in E. coli” value was “soluble”.

Turning to “MSLETMNNKYKIMQLSDLHFGQDLGRCDDTNTSSGEHVDEFKCSSDLKTLKFIEKSIQEENPDLIVITGDLIDIHRSIDYKSIMLKSLQPILAHKIKFIYTFGDEIKDQLTKISIIQFLSTLPNCLNTVPQEVIEGITNYNFQIKQKSSTPSSSSSISVTVLDSEDHLIDDSQMTYLYRINNELLNDYKLLFFHYPLPQFRPKGKFKIVGSYNEKHELDRKTKLKFHDDIISCGYNVISVGHEHENDACLLSSSSSSSNSDKSIWLCYNSITGDSGITKLDKQYVRKMRLFEIDFEKNRILSWKRKEIDNQPFDYQLIYEKPQKEGHHHHHH”, the “soluble on expression in E. coli” value was “soluble”.

“MSLEYKQASIFDNEVKKNKPLADRMRPKTLDEFVGQEHLLGKGKLLRELIEKDNITSMILWGPPGVGKTTLAMIIANMTNSKFITFSAVLSGIKEIKEIMAKAELDAMYGTRTVVFIDEIHRFNKAQQDAFLPHVEKGNIILIGATTENPSFEVNSALLSRSKVFVMKPLTEEDLLILLKRALKDEQNGFGMYKIGITDEQLKKIALFANGDARVALNTLEIAVMGAKVIEGERIVTDDILADAMQKKTLLYDKQGEEHYNLISAFHKSLRNSDWDAAVYWLARMLEAGEDPLYIARRMIRFASEDIGLADPQALEMAVAAYNACHYIGIPECSVNLAQVAIYLALAPKSNAVYMAYNKAKKDAEETIAESVPIHLRNAPTKLMKELGYGKGYKYAHDFEEKVTDMQCLPDNLKDRKYYVPTDSGFEKDIQKRLEQISNLKKKGEGHHHHHH”: the “soluble on expression in E. coli” value is on record as “soluble”.

“MSLFDFFKNKGSAATATDRLKLILAKERTLNLPYMEEMRKEIIAVIQKYTKSSDIHFKTLDSNQSVETIEVEIILPR”: the “soluble on expression in E. coli” value is reported as “not soluble”.

Take “MSLFRLVFVMDIFNRNVVLAKGGIRENYRPVSDSSAVCRTSDPLEILEILRPKEVYIADLNVLQGKGPLDMNAEIIREVSFKADTMLDSGVSSSKDVDRALSIAGTAVIGTETGTLEVIKDSISRNPGRISVSIDIKHGKLLKQDPKIPEDPFEIVKILNRLPLKDLIFLDLDRVGTASGFDPEFLRKLAESSAHDVLLAGGVRGMKDLFALDSLGIKGALVATAIHSGEVSPEVMTLGLKKEGHHHHHH”: the “soluble on expression in E. coli” value is given as “soluble”.

For the sequence “MSLGAYLSQPNTVKCSGDGVGAPRLPLPYGFSAMQGWRVSMEDAHNCIPELDSETAMFSVYDGHGGEEVALYCAKYLPDIIKDQKAYKEGKLQKALEDAFLAIDAKLTTEEVIKELAQIAGRPGMEGKEEPGSDSGTTAVVALIRGKQLIVANAGDSRCVVSEAGKALDMSYDHKPEDEVELARIKNAGGKVTMDGRVNGGLNLSRAIGDHFYKRNKNLPPEEQMISALPDIKVLTLTDDHEFMVIACDGIWNVMSSQEVVDFIQSKISQRDENGELRLLSSIVEELLDQCLAPDTSGDGTGCDNMTCIIICFKPRNTAELQPESGKRKLEEVLSTEGAEEEGHHHHHH”, the “soluble on expression in E. coli” value is “soluble”.

Turning to “MSLGEEFHRNRTRFTKDPRVKSQDLLILALMDNQLRPTLHYQAQNPHRRVLVTGATGYIGGRLITELLAAGFQVRATSRKKTSLQRFDWYEDVEAVEADLTDATELDTLFKDVDVVYYLVHSMGGKNVDFEEQEQRTAENVIQAADQAGIKQIVYLSGLHPRNRKIEELSKHMRSREKVAQILLAGQTPALILRAATIIGSGSASFEIIRHLTERLPRMIAPQWITNQIEPLAIRDVLHYLISAADLKDPVNRSCDIGCGKSYEFADLLRIYADVRGLKRHVNSVPLNLPMDKLSGLWISLVTPVPFQLSFPLAQSMAEDAVTEEHSIKDIISDPPDGFIEYREAVELALAAEFDRGVPTSWDRSWTVQQPWAGQPTDPEWAGKAVYEDVRTEDTDLRAAQVWPIIEGLGGVNGWYSAPLLWRLRGIADRLIGGPGLGGRRDPRHLKLGDRIDWWRVTEIDPPHRLVLTAEMKVDGGAWLILEVADKENGGCTYTQRAIFEPKGEGHHHHHH”, the “soluble on expression in E. coli” value is recorded as “not soluble”.
